Patent US20080089892A1

What was measured:
[1] = molecular target: biotin-labeled soluble FcRn (Fc neonatal receptor); test: ELISA, biotin-FcRn captured on Neutravidin plate, single-point IgG, pH 7.0
[2] = molecular target: biotin-labeled soluble FcRn (Fc neonatal receptor); test: ELISA, biotin-FcRn captured on Neutravidin plate, single-point IgG, pH 6.0
[3] = molecular target: Human FcγRIIIa(158F) soluble extracellular domain with engineered 6-histidine tag (human) (UniProt P08637); test: KinExA, 7.5 nM IgG equilibrated with titrated soluble FcγRIIIa(158F), free IgG captured on receptor beads
Sequence of UniProt P08637 (P08637 other isoform, or with tags, fused parts or gaps): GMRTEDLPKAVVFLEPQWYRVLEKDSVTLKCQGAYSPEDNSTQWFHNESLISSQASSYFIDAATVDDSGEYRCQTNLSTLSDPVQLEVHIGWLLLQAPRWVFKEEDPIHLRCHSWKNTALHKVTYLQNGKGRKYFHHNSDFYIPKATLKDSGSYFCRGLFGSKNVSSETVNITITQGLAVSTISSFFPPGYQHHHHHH

[4] = molecular target: human Fc gamma RI receptor (CD64), extracellular portion with C-terminal 6-his tag; test: ELISA: plate-coated human FcγRI (CD64) extracellular portion with 6-his tag; IgG titrated; bound IgG detected with anti-human kappa alkaline phosphatase conjugate, A560
Sequence of human Fc gamma RI receptor (CD64), extracellular portion with C-terminal 6-his tag (chain, as listed by the source limits assumed): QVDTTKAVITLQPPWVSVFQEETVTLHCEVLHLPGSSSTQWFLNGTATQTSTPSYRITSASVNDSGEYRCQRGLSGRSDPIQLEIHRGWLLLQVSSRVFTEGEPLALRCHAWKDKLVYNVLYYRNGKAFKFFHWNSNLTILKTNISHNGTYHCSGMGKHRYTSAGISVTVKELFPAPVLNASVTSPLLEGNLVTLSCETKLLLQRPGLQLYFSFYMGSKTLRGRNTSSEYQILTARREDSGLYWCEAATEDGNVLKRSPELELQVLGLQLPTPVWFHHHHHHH

Row | Substance | FcRn 7.0 (binding relative to parental) (% of parental (parental = 100)) [1] | FcRn 6.0 (binding relative to parental) (% of parental (parental = 100)) [2] | Kd [3] [nM] | EC50 (read off the curve) [4] [µg/mL]
1 | anti-CD20 IgG Fc variant A330K (antibody) | 99 | 104 | – | –
2 | anti-CD20 IgG Fc variant A330R (antibody) | 101 | 77 | – | –
3 | anti-CD20 IgG Fc variant A339T (antibody) | 109 | 115 | – | –
4 | anti-CD20 IgG Fc variant A378D (antibody) | 93 | 122 | – | –
5 | anti-CD20 IgG Fc variant D280A (antibody) | 84 | 91 | – | –
6 | anti-CD20 IgG Fc variant D280K (antibody) | 93 | 103 | – | –
7 | anti-CD20 IgG Fc variant H268D (antibody) | 84 | 87 | – | –
8 | anti-CD20 IgG Fc variant H268E (antibody) | 81 | 90 | – | –
9 | anti-CD20 IgG Fc variant I332D (antibody) | 102 | 91 | – | –
10 | anti-CD20 IgG Fc variant I332E (AME-133: variable region 33 with the I332E Fc variant sequence) (antibody) | 97 | 99 | 52 | 2
11 | anti-CD20 IgG Fc variant I332K (antibody) | 97 | 109 | – | –
12 | anti-CD20 IgG Fc variant I332R (antibody) | 92 | 97 | – | –
13 | anti-CD20 IgG Fc variant L251F (antibody) | 100 | 102 | – | –
14 | anti-CD20 IgG Fc variant P247H (antibody) | 73 | 79 | – | –
15 | anti-CD20 IgG Fc variant P247I (antibody) | 74 | 89 | – | –
16 | anti-CD20 IgG Fc variant P247L (antibody) | 78 | 92 | – | –
17 | anti-CD20 IgG Fc variant S440Y (antibody) | 102 | 106 | – | –
18 | anti-CD20 IgG Fc variant T256M (antibody) | 82 | 72 | – | –
19 | anti-CD20 IgG Fc variant T256P (antibody) | 121 | 132 | – | –
20 | anti-CD20 IgG combinatorial Fc variant (L256P, I332E) (antibody) | – | – | 21 | 1
21 | wild type (parental Fc) anti-CD20 IgG (antibody) | 100 | 100 | 387 | –
